Measurements from patent US20220098304A1 (JIANGSU HENGRUI MEDICINE, published 2022).

Columns and labels:
[1] = biological target: T1, Human PD-1-IgG1Fc fusion protein (human); test: competition ELISA, PD-1-Fc coated, competitor biotin-labeled PD-L2
T1 construct: also called PD-1-Fc; Hu PD-1-Fc
Procedure: (§1) CB buffer pH 9.6 (1.59 g Na₂CO₃ and 2.93 g NaHCO₃ dissolved in 1 L distilled water) was used to dilute PD-1-Fc to 1 μg/ml, which was added to the 96-well plates at a volume of 100 μl/well and allowed to stand at 4° C. for 16 h-20 h. PBS buffer was aspirated from the 96-well plates, and the plates were washed with PBST (pH 7.4 PBS containing 0.05% tween20) buffer once. 120 μl/well PB ST/1% milk was added and incubated at room temperature for 1 h for blocking. The blocking solution was removed and the plates were washed with PBST buffer once. 90 μl anti-PD-1 antibody to be tested diluted to appropriate concentration with the sample diluent (pH 7.4 PBS containing 5% BSA, 0.05% Tween20) was added and pre-incubated at 4° C. for 1 h. […] The reaction system was removed and the plates were washed with PBST 6 times. 100 μl/well Streptavidin-Peroxidase Polymer 1:400 diluted with PBST buffer was added and incubated with shaking at room temperature for 50 min. The plates were washed with PBST 6 times. 100 μl/well TMB was added and incubated at room temperature for 5-10 min. 100 μl/well 1 M H₂SO₄ was added to stop the reaction.

[2] = biological target: T2, Human PD-1-His protein (Cat. #10377H08H, Sino Biological) (human, UniProt Q15116 25-167); test: ELISA, PD-1-His coated, HRP anti-human IgG detection
T2 construct: Bought protein; also called hPD-1-His; hu PD-1-his; not shown: His tag of the bought protein

[3] = biological target: T1, Human PD-1-IgG1Fc fusion protein; test: competition ELISA, PD-1-Fc coated, competitor biotin-labeled PD-L1
Procedure: as §1

[4] = biological target: T2, Human PD-1-His protein (Cat. …); test: SPR (Biacore T200), antibody captured on Protein A chip, antigen in flow, 1:1 Langmuir
Source text: (§2) IgG was affinity captured by using a Protein A biosensor chip (Cat. #29127556, GE). Human PD-1 antigen (Cat. #10377H08H, Sino Biological) and Cyno PD-1 antigen (purchased from Sino Biological) flowed across the surface of the chip, and the binding and dissociation curves were obtained by real time detection of PD-1 antibody and antigen PD-1 reaction signals by a Biacore T200 instrument. After the dissociation of each experimental cycle was completed, the biosensor chip was washed and regenerated with 10 mM Glycine-HCl pH 1.5 buffer. The experimental buffer system was 1×HBS-EP buffer solution (Cat #BR-1001-88, GE). After the experiment, GE Biacore T200 Evaluation version 3.0 software was used to fit the data with a (1:1) Langmuir model, and the affinity value was obtained.

[5] = biological target: T3, Cyno PD-1 antigen (purchased from Sino Biological) (cynomolgus monkey (Cyno; simian), UniProt B0LAJ3 25-170); test: as above
T3 construct: Bought protein, construct not described; also called simian PD-1; not shown: Tag or carrier of the Sino Biological product (probably a His tag)
Source text: as §2

[6] = biological target: T2, Human PD-1-His protein (Cat. …); test: SPR (Biacore), antibody captured on Protein A chip, PD-1 in flow
Source text: as §2

| IC50 [1] | EC50 [2] | OD value MAX [2] | IC50 [3] | Kd [4] | koff [4] | kon [4] | Kd [5] | koff [5] | kon [5] | Kd [6] | koff [6] | kon [6] | Binder |
| --- | --- | --- | --- | --- | --- | --- | --- | --- | --- | --- | --- | --- | --- |
| 0.225 µg/mL | 0.113 µg/mL | 1.21 OD | 0.11 µg/mL | – | – | – | – | – | – | – | – | – | H005-1 (positive control anti-PD-1 antibody, see H005-1 antibody in WO2015085847) (antibody, V domains shown) VH: EVQLVESGGGLVQPGGSLRLSCAASGFTFSSYMMSWVRQAPGKGLEWVATISGGGANTYYPDSVKGRFTISRDNAKNSLYLQMNSLRAEDTAVYYCARQLYYFDYWGQGTTVTVSS VL: DIQMTQSPSSLSASVGDRVTITCLASQTIGTWLTWYQQKPGKAPKLLIYTATSLADGVPSRFSGSGSGTDFTLTISSLQPEDFATYYCQQVYSIPWTFGGGTKVEIKR |
| 0.245 µg/mL | 0.237 µg/mL | 1.46 OD | 0.0924 µg/mL | 1.86 nM | 0.000113 s⁻¹ | 60600 M⁻¹ s⁻¹ | 2.62 nM | 0.000126 s⁻¹ | 47900 M⁻¹ s⁻¹ | 2.71 nM | 0.000114 s⁻¹ | 42200 M⁻¹ s⁻¹ | Hu23-11.IgG4AA (antibody, V domains shown, Full-length IgG4-AA, kappa; also called Hu23LCDR1 (N28T)) VH: EVQLVQSGAEVKKPGSSVKVSCKASGGTFSDYEMHWVRQAPGQGLEWMGLIDPETGGTVYNQKFKDRVTITADKSTSTAYMELSSLRSEDTAVYYCARERFSYYGSTSDWYFDVWGQGTTVTVSS VL: DIVMTQTPLSLPVTPGEPASISCRSSQSLVHSTGNTYLEWYLQKPGQSPQLLIYKVSNRFSGVPDRFSGSGSGTDFTLKISRVEAEDVGVYYCFQGSHVPYTFGGGTKVEIKR |
| 0.206 µg/mL | 0.136 µg/mL | 1.26 OD | 0.0786 µg/mL | 3.25 nM | 0.000278 s⁻¹ | 85600 M⁻¹ s⁻¹ | 4.11 nM | 0.000475 s⁻¹ | 116000 M⁻¹ s⁻¹ | 3.18 nM | 0.000315 s⁻¹ | 99000 M⁻¹ s⁻¹ | Hu32a-85.IgG4AA (antibody, V domains shown, Full-length IgG4-AA, kappa) VH: EVQLVQSGAEVKKPGSSVKVSCKASDFTFTDYEIHWVKQAPGHGLEWIGLFDPETGGIVYNQKFKGKATLTADKSTSTAYMEFSSLRSEDTAVYYCTREGYNRDWYFDVWGQGTTVTVSS VL: DIVMTQTPLSLPVTPGEPASISCRSSQSLVHSTGNTYLEWYLQKPGQSPQLLIYKVSNRFSGVPDRFSGSGSGTDFTLKISRVEAEDVGVYYCFQGSHVPYTFGGGTKVEIKR |
